T1: SiMYB3 (Setaria italica, UniProt K3YEJ5 1-315)
T1 sequence: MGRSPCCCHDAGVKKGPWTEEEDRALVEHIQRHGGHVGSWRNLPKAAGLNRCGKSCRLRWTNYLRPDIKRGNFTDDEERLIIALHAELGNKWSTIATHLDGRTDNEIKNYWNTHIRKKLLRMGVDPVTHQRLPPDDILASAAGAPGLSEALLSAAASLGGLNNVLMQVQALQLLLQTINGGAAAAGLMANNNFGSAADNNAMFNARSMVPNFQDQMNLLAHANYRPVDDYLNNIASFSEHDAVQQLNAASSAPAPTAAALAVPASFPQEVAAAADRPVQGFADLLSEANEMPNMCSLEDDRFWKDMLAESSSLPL

B1: TAR2 promoter mutant probe (dsDNA)
DNA 1: TTAAGTACATGATTAATTAACGTAATCCAATA
DNA 2: TATTGGATTACGTTAATTAATCATGTACTTAA
B2: OsFIB promoter MYB-motif probe (dsDNA)
DNA 1: GCGATAGAATGTGTCGTATCCCGAGCTAGTTTTGTTCGAACATACAGCC
DNA 2: GGCTGTATGTTCGAACAAAACTAGCTCGGGATACGACACATTCTATCGC
B3: TAR2 promoter MYB-element probe (dsDNA)
DNA 1: TTAAGTACATGAGTTAGGTTCGTAATCCAATA
DNA 2: TATTGGATTACGAACCTAACTCATGTACTTAA

Molecular target: T1, SiMYB3
Experiment: EMSA; EMSA 20 uL: 30 ng GST-SiMYB3, 400 fmol biotin probe, 10 mM Tris pH 7.5, 50 mM KCl, 1 mM DTT, 2.5% glycerol, 5 mM MgCl2, 50 ng/uL poly(dI-dC), 0.05% NP-40; temperature not stated
Conditions: protein: recombinant; label: biotin

Binder | binding result
B1 | no binding
B2 | binds
B3 | binds

— publication PMC6888739, “SiMYB3 in Foxtail Millet (Setaria italica) Confers Tolerance to Low-Nitrogen Stress by Regulating Root Growth in Transgenic Plants”
